From publication PMC3334620

What was measured:
Conditions in all cases: 200 nM
[1] = target: T1, Zap1 (Saccharomyces cerevisiae) (UniProt P47043)
T1 sequence: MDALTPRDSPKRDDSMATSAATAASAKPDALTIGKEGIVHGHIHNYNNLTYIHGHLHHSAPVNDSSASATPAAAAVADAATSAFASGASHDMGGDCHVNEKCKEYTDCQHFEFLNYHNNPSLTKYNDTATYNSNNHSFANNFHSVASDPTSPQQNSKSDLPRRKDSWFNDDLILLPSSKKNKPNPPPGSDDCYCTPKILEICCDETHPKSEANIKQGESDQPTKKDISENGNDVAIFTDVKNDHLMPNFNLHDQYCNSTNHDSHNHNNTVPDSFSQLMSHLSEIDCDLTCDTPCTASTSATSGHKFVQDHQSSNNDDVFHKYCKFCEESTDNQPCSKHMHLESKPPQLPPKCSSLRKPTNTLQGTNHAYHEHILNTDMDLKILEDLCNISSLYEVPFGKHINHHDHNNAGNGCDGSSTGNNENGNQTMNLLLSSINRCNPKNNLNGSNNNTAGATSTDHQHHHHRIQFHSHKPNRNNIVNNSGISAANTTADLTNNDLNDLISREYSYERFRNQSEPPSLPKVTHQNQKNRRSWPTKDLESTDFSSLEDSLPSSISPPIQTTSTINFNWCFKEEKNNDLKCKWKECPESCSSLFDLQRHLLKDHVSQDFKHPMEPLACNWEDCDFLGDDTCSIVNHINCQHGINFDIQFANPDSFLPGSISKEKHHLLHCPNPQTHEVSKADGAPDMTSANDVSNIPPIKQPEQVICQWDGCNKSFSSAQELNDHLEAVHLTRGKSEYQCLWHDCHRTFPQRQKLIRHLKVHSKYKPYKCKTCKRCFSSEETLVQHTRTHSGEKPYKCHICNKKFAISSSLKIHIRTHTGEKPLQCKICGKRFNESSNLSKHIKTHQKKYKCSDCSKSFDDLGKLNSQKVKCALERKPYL

[2] = target: T2, Vhr2 (Saccharomyces cerevisiae) (UniProt P40041)
T2 sequence: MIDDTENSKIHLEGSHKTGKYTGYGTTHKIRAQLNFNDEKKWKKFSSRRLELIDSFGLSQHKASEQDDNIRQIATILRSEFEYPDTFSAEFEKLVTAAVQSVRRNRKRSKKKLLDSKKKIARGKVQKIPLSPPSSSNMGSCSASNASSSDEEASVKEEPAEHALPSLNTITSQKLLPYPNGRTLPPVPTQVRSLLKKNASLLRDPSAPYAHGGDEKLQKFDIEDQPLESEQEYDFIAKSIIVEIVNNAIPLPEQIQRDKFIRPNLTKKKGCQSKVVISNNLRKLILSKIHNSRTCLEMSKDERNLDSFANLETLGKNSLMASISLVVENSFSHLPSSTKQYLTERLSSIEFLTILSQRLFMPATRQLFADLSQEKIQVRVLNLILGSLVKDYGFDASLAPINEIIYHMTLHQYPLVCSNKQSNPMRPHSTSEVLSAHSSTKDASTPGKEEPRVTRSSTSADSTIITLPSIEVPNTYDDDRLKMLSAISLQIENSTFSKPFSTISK

[3] = target: T3, Ybr033w (Saccharomyces cerevisiae) (UniProt P38073)
T3 sequence: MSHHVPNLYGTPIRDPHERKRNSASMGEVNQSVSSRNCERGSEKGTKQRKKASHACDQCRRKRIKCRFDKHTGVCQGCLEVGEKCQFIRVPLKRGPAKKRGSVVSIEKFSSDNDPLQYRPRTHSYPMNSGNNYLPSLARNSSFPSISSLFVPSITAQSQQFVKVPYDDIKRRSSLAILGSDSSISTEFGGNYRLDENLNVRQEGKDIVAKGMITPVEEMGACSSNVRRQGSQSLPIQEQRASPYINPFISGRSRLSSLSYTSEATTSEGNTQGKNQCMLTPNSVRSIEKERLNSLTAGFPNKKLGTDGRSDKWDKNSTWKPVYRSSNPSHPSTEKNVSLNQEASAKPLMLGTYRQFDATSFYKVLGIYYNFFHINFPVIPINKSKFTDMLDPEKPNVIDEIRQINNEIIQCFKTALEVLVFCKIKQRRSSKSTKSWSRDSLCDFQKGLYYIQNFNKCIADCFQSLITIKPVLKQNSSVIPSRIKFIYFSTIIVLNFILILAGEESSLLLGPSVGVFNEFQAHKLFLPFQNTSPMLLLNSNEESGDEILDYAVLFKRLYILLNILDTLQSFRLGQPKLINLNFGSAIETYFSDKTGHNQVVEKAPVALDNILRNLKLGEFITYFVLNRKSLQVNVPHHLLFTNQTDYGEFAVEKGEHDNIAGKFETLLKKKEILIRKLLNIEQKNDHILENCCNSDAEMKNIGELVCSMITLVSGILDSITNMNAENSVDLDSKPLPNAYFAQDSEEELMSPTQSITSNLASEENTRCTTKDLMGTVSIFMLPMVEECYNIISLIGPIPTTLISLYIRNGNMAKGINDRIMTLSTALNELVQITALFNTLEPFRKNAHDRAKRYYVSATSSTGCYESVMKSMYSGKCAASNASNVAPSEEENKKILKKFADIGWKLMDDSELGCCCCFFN

[4] = target: T4, Vhr1 (Saccharomyces cerevisiae) (UniProt P40522)
T4 sequence: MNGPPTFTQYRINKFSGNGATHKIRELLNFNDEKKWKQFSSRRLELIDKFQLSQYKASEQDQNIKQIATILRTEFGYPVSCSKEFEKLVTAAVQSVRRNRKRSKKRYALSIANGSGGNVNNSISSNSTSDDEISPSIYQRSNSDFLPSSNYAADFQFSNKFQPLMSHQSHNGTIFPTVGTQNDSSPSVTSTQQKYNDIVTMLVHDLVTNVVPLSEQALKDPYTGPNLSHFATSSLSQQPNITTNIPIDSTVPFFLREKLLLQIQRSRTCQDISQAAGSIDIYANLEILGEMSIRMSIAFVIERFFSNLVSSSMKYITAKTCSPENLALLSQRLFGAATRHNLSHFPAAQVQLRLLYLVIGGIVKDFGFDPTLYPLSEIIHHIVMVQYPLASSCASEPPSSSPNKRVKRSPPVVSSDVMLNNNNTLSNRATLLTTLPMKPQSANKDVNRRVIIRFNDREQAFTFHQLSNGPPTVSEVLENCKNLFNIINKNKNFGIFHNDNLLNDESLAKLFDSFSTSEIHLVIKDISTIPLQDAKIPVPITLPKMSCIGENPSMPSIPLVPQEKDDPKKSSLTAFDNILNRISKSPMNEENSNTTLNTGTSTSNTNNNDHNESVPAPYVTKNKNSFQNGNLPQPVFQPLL

Sequence | binding signal (PBM E-score (-0.5 to 0.5)) [1] | binding signal (PBM E-score (-0.5 to 0.5)) [2] | binding signal (PBM E-score (-0.5 to 0.5)) [3] | binding signal (PBM E-score (-0.5 to 0.5)) [4]
AAAGGTTA (double strand) [8-mer AAAGGTTA] | 0.479 | – | – | –
AAGGGTTA (double strand) [8-mer AAGGGTTA] | 0.489 | – | – | –
AAGGTTAT (double strand) [8-mer AAGGTTAT] | 0.478 | – | – | –
AATGACTC (double strand) [8-mer AATGACTC] | – | 0.495 | – | –
AATGTTCC (double strand) [8-mer AATGTTCC] | – | – | 0.471 | –
AATTATCC (double strand) [8-mer AATTATCC] | – | – | 0.471 | –
AGAGGTTA (double strand) [8-mer AGAGGTTA] | 0.476 | – | – | –
AGGGGTTA (double strand) [8-mer AGGGGTTA] | 0.479 | – | – | –
AGGGTTAC (double strand) [8-mer AGGGTTAC] | 0.484 | – | – | –
AGGGTTAT (double strand) [8-mer AGGGTTAT] | 0.49 | – | – | –
AGGTTACC (double strand) [8-mer AGGTTACC] | 0.476 | – | – | –
AGTGACTC (double strand) [8-mer AGTGACTC] | – | – | – | 0.481
ATAACCCC (double strand) [8-mer ATAACCCC] | 0.476 | – | – | –
ATAACCTC (double strand) [8-mer ATAACCTC] | 0.487 | – | – | –
ATGACTAA (double strand) [8-mer ATGACTAA] | – | 0.494 | – | –
ATGACTAC (double strand) [8-mer ATGACTAC] | – | 0.494 | – | –
ATGACTCA (double strand) [8-mer ATGACTCA] | – | 0.499 | – | 0.495
ATGACTCC (double strand) [8-mer ATGACTCC] | – | 0.493 | – | 0.494
ATGAGTCA (double strand) [8-mer ATGAGTCA] | – | 0.498 | – | 0.492
ATTAATCC (double strand) [8-mer ATTAATCC] | – | – | 0.486 | –
ATTATTCC (double strand) [8-mer ATTATTCC] | – | – | 0.479 | –
ATTGTTCC (double strand) [8-mer ATTGTTCC] | – | – | 0.484 | –
ATTTATCC (double strand) [8-mer ATTTATCC] | – | – | 0.485 | –
ATTTTCCG (double strand) [8-mer ATTTTCCG] | – | – | 0.472 | –
ATTTTTCC (double strand) [8-mer ATTTTTCC] | – | – | 0.486 | –

Sequence | binding signal (PBM E-score (-0.5 to 0.5)) [1] | binding signal (PBM E-score (-0.5 to 0.5)) [2] | binding signal (PBM E-score (-0.5 to 0.5)) [3] | binding signal (PBM E-score (-0.5 to 0.5)) [4]
CAGGGTTA (double strand) [8-mer CAGGGTTA] | 0.477 | – | – | –
CATAACCC (double strand) [8-mer CATAACCC] | 0.482 | – | – | –
CATGACTC (double strand) [8-mer CATGACTC] | – | 0.494 | – | 0.485
CCATAACC (double strand) [8-mer CCATAACC] | 0.479 | – | – | –
CGGAAAAA (double strand) [8-mer CGGAAAAA] | – | – | 0.495 | –
CGGAACAA (double strand) [8-mer CGGAACAA] | – | – | 0.491 | –
CGGAGTCA (double strand) [8-mer CGGAGTCA] | – | – | – | 0.485
CGGATAAA (double strand) [8-mer CGGATAAA] | – | – | 0.488 | –
CGGATCAA (double strand) [8-mer CGGATCAA] | – | – | 0.472 | –
CGGATTAA (double strand) [8-mer CGGATTAA] | – | – | 0.482 | –
CGTAACCC (double strand) [8-mer CGTAACCC] | 0.482 | – | – | –
CTGACTCA (double strand) [8-mer CTGACTCA] | – | 0.494 | – | 0.49
CTGAGTCA (double strand) [8-mer CTGAGTCA] | – | 0.496 | – | 0.489
GAGTCACA (double strand) [8-mer GAGTCACA] | – | – | – | 0.487
GAGTCACC (double strand) [8-mer GAGTCACC] | – | 0.496 | – | 0.491
GAGTCATA (double strand) [8-mer GAGTCATA] | – | 0.495 | – | 0.484
GAGTCATC (double strand) [8-mer GAGTCATC] | – | 0.497 | – | 0.492
GATGACTA (double strand) [8-mer GATGACTA] | – | 0.495 | – | –
GGAAAAAA (double strand) [8-mer GGAAAAAA] | – | – | 0.472 | –
GGAAAAAC (double strand) [8-mer GGAAAAAC] | – | – | 0.476 | –
GGAGTCAC (double strand) [8-mer GGAGTCAC] | – | – | – | 0.485
GGTTATGA (double strand) [8-mer GGTTATGA] | 0.48 | – | – | –
GTGACTCA (double strand) [8-mer GTGACTCA] | – | 0.498 | – | 0.496
GTGAGTCA (double strand) [8-mer GTGAGTCA] | – | 0.498 | – | 0.494
